Results on 30 sequences are retold here after the supplement of paper PMC7877785.

± gives the uncertainty stated by the source.

The data set is described as follows: self-splicing fitness, log relative to wild type (ln ratio); higher = more splicing; Tetrahymena group I intron in knt gene, E. coli kanamycin selection, DiMSum; sequences stand for … in CUCUCU…GGAGGGAAAAGUUAUCAGGCAUGCACCUGGUAGCUAGUCUUUAAACCAAUAGAUUGCAUCGGUUUAAAAGGCAAGACCGUCAAAUUGCGGGAAAGGGGUCAACAGCCGUUCAGUACCAAGUCUCAGGGGAAACUUUGAGAUGGCCUUGCAAAGGGUAUGGUAAUAAGCUGACGGACAUGGUCCUAACCACGCAGCCAAGUCCUAAGUCAACAGAUCUUCUGUUGAUAUGGAUGCAGUUCACAGACUAAAUGUCGGUCGGGGAAGAUGUAUUCUUCUCAUAAGAUAUAGUCGGACCUCUCCUUAAUGGGAGCUAGCGGAUGAAGUGAUGCAACACUGGAGCCGCUGGGAACUAAUUUGUAUGCGAAAGUAUAUUGAUUAGUUUUGGAGUACUCGUGGUCG
An outline of the steps:
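DiMSum derived fitness as the error-weighted combination of fold changes across replicates, kanamycin versus no kanamycin, normalised to wild type. E. coli BL21(DE3) held the library, which randomised all eight P1ex-region intron nucleotides within the knt kanamycin-resistance gene on pET-22b(+). Six replicate transformations grew overnight at 37°C or 30°C on LB agar with or without 25 μg/mL kanamycin, also containing 100 μg/mL carbenicillin, 50 μM IPTG and 0.2% rhamnose, and pooled colonies were amplicon-sequenced on an Illumina HiSeq 2500.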

Consider GCGUAGCAAUAUUACGCACC, for which the “self-splicing fitness (ln)” value (30 °C) is -4.01 ± 0.37 and the “self-splicing fitness (ln)” value (37 °C) is -1.49 ± 0.34.

Take CCUCAGCAAUAUUACGGCCC: where the note is “30 °C”, the “self-splicing fitness (ln)” value is -4.21 ± 0.39.

For the sequence UGUGAGCAAUAUUACGGCUA, the “self-splicing fitness (ln)” value is -0.645 ± 0.13 (30 °C) and -0.508 ± 0.15 (37 °C).

As for CGACAGCAAUAUUACGAAUG, the “self-splicing fitness (ln)” value by setting is: (30 °C) -1.1 ± 0.079; (37 °C) -0.112 ± 0.1.

For GCACAGCAAUAUUACGUACU, the “self-splicing fitness (ln)” value (30 °C) was -1.2 ± 0.069 and the “self-splicing fitness (ln)” value (37 °C) was -1.2 ± 0.094.

Take UACUAGCAAUAUUACGAAUA: the “self-splicing fitness (ln)” value reads like this: (30 °C) -1.51 ± 0.18; (37 °C) -0.474 ± 0.13.

As for ACCUAGCAAUAUUACGAGCU, the “self-splicing fitness (ln)” value (30 °C) is -0.918 ± 0.075 and the “self-splicing fitness (ln)” value (37 °C) was -0.237 ± 0.09.

CUCUAGCAAUAUUACGGUAA: the “self-splicing fitness (ln)” value by setting is: (30 °C) -2.38 ± 0.24; (37 °C) -2.14 ± 0.21.

Regarding GAUCAGCAAUAUUACGGUCG, the “self-splicing fitness (ln)” value by setting is: (30 °C) -1.42 ± 0.092; (37 °C) -0.484 ± 0.088.

Consider GCGUAGCAAUAUUACGGCCG, for which the “self-splicing fitness (ln)” value (30 °C) is -1.01 ± 0.16 and the “self-splicing fitness (ln)” value (37 °C) was 0.509 ± 0.34.

Turning to CCGCAGCAAUAUUACGAGUG, the “self-splicing fitness (ln)” value (30 °C) was -0.193 ± 0.052 and the “self-splicing fitness (ln)” value (37 °C) is -0.212 ± 0.069.

Consider GAUCAGCAAUAUUACGCAAA, for which the “self-splicing fitness (ln)” value is -0.978 ± 0.17 (30 °C) and -0.367 ± 0.16 (37 °C).

For the sequence AAUUAGCAAUAUUACGAUCU, the “self-splicing fitness (ln)” value stood at 0.226 ± 0.09 (30 °C) and 0.704 ± 0.11 (37 °C).

Take AGCUAGCAAUAUUACGCGCA: the “self-splicing fitness (ln)” value is -0.216 ± 0.095 (30 °C) and 0.0846 ± 0.13 (37 °C).

With UUACAGCAAUAUUACGUAAC, the “self-splicing fitness (ln)” value by setting is: (30 °C) -3.72 ± 0.18; (37 °C) -3.25 ± 0.24.

GCGCAGCAAUAUUACGUGAA: the “self-splicing fitness (ln)” value turned out to be 0.0716 ± 0.076 (30 °C) and 0.149 ± 0.074 (37 °C).

In the case of GGGUAGCAAUAUUACGAGUC, the “self-splicing fitness (ln)” value was -3.63 ± 0.26 (30 °C) and -0.588 ± 0.17 (37 °C).

As to GGGAAGCAAUAUUACGUGUU, the “self-splicing fitness (ln)” value was -3.17 ± 0.21 (30 °C) and -1.9 ± 0.16 (37 °C).

Take UACCAGCAAUAUUACGCUCU: the “self-splicing fitness (ln)” value by setting is: (30 °C) -0.618 ± 0.072; (37 °C) 0.00956 ± 0.082.

In the case of CAAGAGCAAUAUUACGCAAG, the “self-splicing fitness (ln)” value is, setting by setting: (30 °C) -3.06 ± 0.17; (37 °C) -1.99 ± 0.17.

As for CGAUAGCAAUAUUACGUGCA, the “self-splicing fitness (ln)” value is, setting by setting: (30 °C) -2.67 ± 0.15; (37 °C) -2.13 ± 0.16.

Consider GCGAAGCAAUAUUACGUUUG, for which the “self-splicing fitness (ln)” value by setting is: (30 °C) -2.87 ± 0.14; (37 °C) -2.68 ± 0.23.

Turning to CGACAGCAAUAUUACGAAAU, the “self-splicing fitness (ln)” value is -3.15 ± 0.12 (30 °C) and -3.06 ± 0.19 (37 °C).

Take AAAAAGCAAUAUUACGGCAC: the “self-splicing fitness (ln)” value reads like this: (30 °C) -0.499 ± 0.076; (37 °C) -0.593 ± 0.1.

Consider GUCUAGCAAUAUUACGAAUA, for which the “self-splicing fitness (ln)” value (30 °C) was -1.87 ± 0.17 and the “self-splicing fitness (ln)” value (37 °C) is -0.494 ± 0.14.

Turning to AUUCAGCAAUAUUACGUAGC, the “self-splicing fitness (ln)” value was -3.44 ± 0.26 (30 °C) and -1.43 ± 0.19 (37 °C).

As for GGAUAGCAAUAUUACGUUUA, the “self-splicing fitness (ln)” value by setting is: (30 °C) -1.02 ± 0.16; (37 °C) 0.714 ± 0.14.

For the sequence GGGAAGCAAUAUUACGGCAU, the “self-splicing fitness (ln)” value runs as follows: (30 °C) -0.534 ± 0.16; (37 °C) -0.344 ± 0.19.

In the case of GUGGAGCAAUAUUACGAGUA, the “self-splicing fitness (ln)” value (37 °C) is -1.96 ± 0.44.

With CAGAAGCAAUAUUACGGACA, the “self-splicing fitness (ln)” value (30 °C) was -1.93 ± 0.16 and the “self-splicing fitness (ln)” value (37 °C) is -0.876 ± 0.13.
